Key:
[1] = molecular target: T1, CD3 epsilon homodimer protein (UniProt P07766 23-126); assay: SPR Biacore T200, CD3 epsilon homodimer on CM4 chip, antibody as analyte;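 also: Amine-coupled CD3 epsilon homodimer, run at 25 °C in HBS-EP+ buffer, ratio is bound amount of each single-residue H chain variant over that of the parent antibody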
T1 construct: Immobilized on Sensor chip CM4 by amine coupling; construct not described; also called CD3 (CD3 epsilon)
T1 sequence (P07766 23-126): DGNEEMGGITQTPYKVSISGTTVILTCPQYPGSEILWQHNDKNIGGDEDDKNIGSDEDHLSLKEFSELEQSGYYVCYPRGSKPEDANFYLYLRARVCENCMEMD

[2] = molecular target: T2, CD3 epsilon homodimer protein (UniProt P07766 23-126); assay: SPR (Biacore T200), CD3 epsilon homodimer on CM4 chip, one-arm antibody as analyte; ratio to unaltered CE115HA000;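 also: surface plasmon resonance run at 25 °C with HBS-EP+ as running buffer, CD3 epsilon homodimer attached by amine coupling, antibody passed over as analyte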
T2 construct: Construct of the homodimer protein is not described; also called CD3 (CD3 epsilon)
T2 sequence (P07766 23-126): as above

Binder	ratio of amounts bound (Y/X vs CE115HA000) [1]	KD ratio (KD value of CE115HA000/KD value of the altered form) [2]
CE115HA000 D101A one-arm antibody (antibody, human IgG1, kappa, L234A L235A, N297A, name in Kabat numbering, one-arm antibody) heavy: QVQLVESGGGVVQPGRSLRLSCAASGFTFSNAWMHWVRQAPGKGLEWVAQIKAKSNNYATYYAESVKGRFTISRDDSKNSLYLQMNSLKTEDTAVYYCRYVHYGAYYGVAAWGQGTTVTVSSASTKGPSVFPLAPSSKSTSGGTAALGCLVKDYFPEPVTVSWNSGALTSGVHTFPAVLQSSGLYSLSSVVTVPSSSLGTQTYICNVNHKPSNTKVDKKVEPKSCDKTHTCPPCPAPEAAGGPSVFLFPPKPKDTLMISRTPEVTCVVVDVSHEDPEVKFNWYVDGVEVHNAKTKPREEQYASTYRVVSVLTVLHQDWLNGKEYKCKVSNKALPAPIEKTISKAKGQPREPQVYTLPPSRCELTKNQVSLSCAVKGFYPSDIAVEWESNGQPENNYKTTPPVLDSDGSFFLVSKLTVDKSRWQQGNVFSCSVMHEALHNHYTQKSLSLSPDYKDDDDK EPKSSDKTHTCPPCPAPELLGGPSVFLFPPKPKDTLMISRTPEVTCVVVDVSHEDPEVKFNWYVDGVEVHNAKTKPREEQYNSTYRVVSVLTVLHQDWLNGKEYKCKVSNKALPAPIEKTISKAKGQPREPQVCTLPPSRDELTKNQVSLWCLVKGFYPSDIAVEWESNGQPENNYKTTPPVLDSDGSFFLYSKLTVDKSRWQQGNVFSCSVMHEALHNRYTQKSLSLSP light: DIVMTQSPLSLPVTPGEPASISCRSSQSLVHSNRNTYLHWYQQKPGQAPRLLIYKVSNRFSGVPDRFSGSGSGTDFTLKISRVEAEDVGVYYCGQGTQVPYTFGQGTKLEIKRTVAAPSVFIFPPSDEQLKSGTASVVCLLNNFYPREAKVQWKVDNALQSGNSQESVTEQDSKDSTYSLSSTLTLSKADYEKHKVYACEVTHQGLSSPVTKSFNRGEC	–	0.86
CE115HA000 Y100aS one-arm antibody (antibody, human IgG1, kappa, L234A L235A, N297A, name in Kabat numbering, one-arm antibody (one Fab)) heavy: QVQLVESGGGVVQPGRSLRLSCAASGFTFSNAWMHWVRQAPGKGLEWVAQIKAKSNNYATYYAESVKGRFTISRDDSKNSLYLQMNSLKTEDTAVYYCRYVHYGAYSGVDAWGQGTTVTVSSASTKGPSVFPLAPSSKSTSGGTAALGCLVKDYFPEPVTVSWNSGALTSGVHTFPAVLQSSGLYSLSSVVTVPSSSLGTQTYICNVNHKPSNTKVDKKVEPKSCDKTHTCPPCPAPEAAGGPSVFLFPPKPKDTLMISRTPEVTCVVVDVSHEDPEVKFNWYVDGVEVHNAKTKPREEQYASTYRVVSVLTVLHQDWLNGKEYKCKVSNKALPAPIEKTISKAKGQPREPQVYTLPPSRCELTKNQVSLSCAVKGFYPSDIAVEWESNGQPENNYKTTPPVLDSDGSFFLVSKLTVDKSRWQQGNVFSCSVMHEALHNHYTQKSLSLSPDYKDDDDK EPKSSDKTHTCPPCPAPELLGGPSVFLFPPKPKDTLMISRTPEVTCVVVDVSHEDPEVKFNWYVDGVEVHNAKTKPREEQYNSTYRVVSVLTVLHQDWLNGKEYKCKVSNKALPAPIEKTISKAKGQPREPQVCTLPPSRDELTKNQVSLWCLVKGFYPSDIAVEWESNGQPENNYKTTPPVLDSDGSFFLYSKLTVDKSRWQQGNVFSCSVMHEALHNRYTQKSLSLSP light: DIVMTQSPLSLPVTPGEPASISCRSSQSLVHSNRNTYLHWYQQKPGQAPRLLIYKVSNRFSGVPDRFSGSGSGTDFTLKISRVEAEDVGVYYCGQGTQVPYTFGQGTKLEIKRTVAAPSVFIFPPSDEQLKSGTASVVCLLNNFYPREAKVQWKVDNALQSGNSQESVTEQDSKDSTYSLSSTLTLSKADYEKHKVYACEVTHQGLSSPVTKSFNRGEC	0.64	–

Next, values leading:

ratio of amounts bound (Y/X vs CE115HA000) [1]	KD ratio (KD value of CE115HA000/KD value of the altered form) [2]	Binder
0.56	–	CE115HA000 Y100aQ one-arm antibody (antibody, human IgG1, kappa, L234A L235A, N297A, name in Kabat numbering, one-arm antibody (one Fab)) heavy: QVQLVESGGGVVQPGRSLRLSCAASGFTFSNAWMHWVRQAPGKGLEWVAQIKAKSNNYATYYAESVKGRFTISRDDSKNSLYLQMNSLKTEDTAVYYCRYVHYGAYQGVDAWGQGTTVTVSSASTKGPSVFPLAPSSKSTSGGTAALGCLVKDYFPEPVTVSWNSGALTSGVHTFPAVLQSSGLYSLSSVVTVPSSSLGTQTYICNVNHKPSNTKVDKKVEPKSCDKTHTCPPCPAPEAAGGPSVFLFPPKPKDTLMISRTPEVTCVVVDVSHEDPEVKFNWYVDGVEVHNAKTKPREEQYASTYRVVSVLTVLHQDWLNGKEYKCKVSNKALPAPIEKTISKAKGQPREPQVYTLPPSRCELTKNQVSLSCAVKGFYPSDIAVEWESNGQPENNYKTTPPVLDSDGSFFLVSKLTVDKSRWQQGNVFSCSVMHEALHNHYTQKSLSLSPDYKDDDDK EPKSSDKTHTCPPCPAPELLGGPSVFLFPPKPKDTLMISRTPEVTCVVVDVSHEDPEVKFNWYVDGVEVHNAKTKPREEQYNSTYRVVSVLTVLHQDWLNGKEYKCKVSNKALPAPIEKTISKAKGQPREPQVCTLPPSRDELTKNQVSLWCLVKGFYPSDIAVEWESNGQPENNYKTTPPVLDSDGSFFLYSKLTVDKSRWQQGNVFSCSVMHEALHNRYTQKSLSLSP light: DIVMTQSPLSLPVTPGEPASISCRSSQSLVHSNRNTYLHWYQQKPGQAPRLLIYKVSNRFSGVPDRFSGSGSGTDFTLKISRVEAEDVGVYYCGQGTQVPYTFGQGTKLEIKRTVAAPSVFIFPPSDEQLKSGTASVVCLLNNFYPREAKVQWKVDNALQSGNSQESVTEQDSKDSTYSLSSTLTLSKADYEKHKVYACEVTHQGLSSPVTKSFNRGEC
–	1.03	CE115HA000 A99D one-arm antibody (antibody, human IgG1, kappa, L234A L235A, N297A, name in Kabat numbering, one-arm antibody) heavy: QVQLVESGGGVVQPGRSLRLSCAASGFTFSNAWMHWVRQAPGKGLEWVAQIKAKSNNYATYYAESVKGRFTISRDDSKNSLYLQMNSLKTEDTAVYYCRYVHYGDYYGVDAWGQGTTVTVSSASTKGPSVFPLAPSSKSTSGGTAALGCLVKDYFPEPVTVSWNSGALTSGVHTFPAVLQSSGLYSLSSVVTVPSSSLGTQTYICNVNHKPSNTKVDKKVEPKSCDKTHTCPPCPAPEAAGGPSVFLFPPKPKDTLMISRTPEVTCVVVDVSHEDPEVKFNWYVDGVEVHNAKTKPREEQYASTYRVVSVLTVLHQDWLNGKEYKCKVSNKALPAPIEKTISKAKGQPREPQVYTLPPSRCELTKNQVSLSCAVKGFYPSDIAVEWESNGQPENNYKTTPPVLDSDGSFFLVSKLTVDKSRWQQGNVFSCSVMHEALHNHYTQKSLSLSPDYKDDDDK EPKSSDKTHTCPPCPAPELLGGPSVFLFPPKPKDTLMISRTPEVTCVVVDVSHEDPEVKFNWYVDGVEVHNAKTKPREEQYNSTYRVVSVLTVLHQDWLNGKEYKCKVSNKALPAPIEKTISKAKGQPREPQVCTLPPSRDELTKNQVSLWCLVKGFYPSDIAVEWESNGQPENNYKTTPPVLDSDGSFFLYSKLTVDKSRWQQGNVFSCSVMHEALHNRYTQKSLSLSP light: DIVMTQSPLSLPVTPGEPASISCRSSQSLVHSNRNTYLHWYQQKPGQAPRLLIYKVSNRFSGVPDRFSGSGSGTDFTLKISRVEAEDVGVYYCGQGTQVPYTFGQGTKLEIKRTVAAPSVFIFPPSDEQLKSGTASVVCLLNNFYPREAKVQWKVDNALQSGNSQESVTEQDSKDSTYSLSSTLTLSKADYEKHKVYACEVTHQGLSSPVTKSFNRGEC
